In PMC12518693, “Potent Fluorescent Probe for Target‐Engagement Studies of Allosteric Pyruvate Kinase Modulators” (Angewandte Chemie (International Ed. in English), 2025):
Several values for one entry are separate records, joined by “and”; a condition that tells them apart may be missing. Equal entries are not always repeated.

B1: liver isoform of pyruvate kinase (PKL), wild type, recombinant (enzyme)
chain: not shown
notes: Pyruvate kinase, liver isoform (PKL), human; The same molecule is used for the native PAGE protein and for the crystallised protein; Construct details are probably in the Supporting Information; also called PKLwt; source: recombinant
B2: PKL-Nluc fusion, nanoluciferase fused to the N-terminus of PKL, recombinant (enzyme)
chain: not shown
notes: Pyruvate kinase, liver isoform (PKL), human; The bands were detected by in-gel luminescence of the Nluc part; source: recombinant, expressed and purified; not shown: Nluc, N-terminal, kept

Target: the molecule itself
Test: native gel or EMSA; recombinant protein incubated with tracer IV (0.15-10 uM) or DMSO at room temperature, native PAGE on 3%-12% bis-tris gel; bands seen by in-gel luminescence (Nluc substrate), colloidal blue staining and western blot; no FBP

Protein | stoichiometry N
B1 | 4
B2 | 4 and 2
